# Data from patent publication US12351834B2, “Compositions and methods for the treatment of ornithine transcarbamylase deficiency” (Arcturus Therapeutics, Inc., priority 2020, dated 2025).
# Assays:
# Type in all cases: in vivo, mouse
# Spf/ash mice [1] = assay: Survival of Spf/ash mice on a high protein diet; settings: 0.3, 1 and 3 mg/kg IV on days 0, 7, 14, 21, 28
# Protocol: Spf/ash mice received an IV injection with either PBS or lipid-formulated OTC-mRNA (1799.7) at three doses: 0.3 mg/kg, 1 mg/kg and 3 mg/kg. Mice were fed a high protein diet from day 0 to the end of the study. Treated animals were injected intravenously on days 0, 7, 14, 21 and 28 (indicated by the arrows in the chart in FIG. 17). Survival rates were determined every week. The plot in FIG. 17 summarizes the entire study timeline and the survival rates observed for the different groups.
# The pharmacology of the OTC mRNA lipid formulations was investigated in studies that elucidated their efficacy and potential mechanism of action in a series of studies in the hemizygous male Spf/ash mouse model. […] The hypomorphic Spf/ash mouse shares similar biochemical features with OTCD patients, including elevated concentrations of urinary orotic acid (orotate), blood glutamine, and decreased concentrations of blood citrulline and arginine. The hemizygous male Spf/ash mice used in the pharmacology studies were derived by crossing B6EiC3Sn a/A-Otcspfash/J Het mice x B6EiC3SnF1/J mice as homozygous mice are not viable. […]
# To study the effect of different ionizable cationic lipids on survival rate, Spf/ash mice received an IV injection with either PBS or one of three different lipid-formulated OTC-mRNA (1799.7) compositions. […] Survival rates were determined daily. […]
# Spf/ash mice [2] = assay: PK/PD analysis of human OTC expression and urinary orotate in Spf/ash mice; settings: 1 mg/kg and 3 mg/kg IV, 96 hours post dose
# Protocol: Spf/ash mice received an IV injection with either PBS or certain lipid-formulated OTC-mRNAs from Table 5 at 1 mg/kg and 3 mg/kg using two different uridine chemistries (N1MPU and 5MeOU). WT mice were used as internal controls. Human-specific OTC levels were measured by MRM, and urinary orotate was determined in each sample and normalized to creatinine.
# Spf/ash mice [3] = assay: Urinary orotate levels in Spf/ash mice; settings: 3 mg/kg IV, lipid-formulated
# Protocol: Spf/ash mice received an IV injection with either PBS or lipid-formulated OTC-mRNA construct 1799.7 (5MeOU chemistry) at three different doses: 0.3 mg/kg, 1 mg/kg and 3 mg/kg. Urinary orotate levels were determined in untreated wild-type (WT) and both untreated and treated Spf/ash mice. A urinary orotate time course was performed in Spf/ash and WT mice, and urinary orotate levels were measured at each timepoint. The results can be seen in FIG. 12. Urinary orotate was normalized to creatinine, which is represented in the graph on the y-axis throughout the time course and served as a proof-of-concept of functional restoration of OTC activity post-injection.
# Spf/ash mice received an IV injection with either PBS or lipid-formulated (as described in Example 1) OTC-mRNA at 1 mg/kg and 3 mg/kg. WT mice were included as an internal control. Urinary orotate levels were measured at 0, 1, 3, 7 and 14 days, and levels were normalized to creatinine (FIG. 16).
molecule,measurement,setting,value
"1799.7 (nucleic acid, 100% 5-methoxyuridine; lipid formulation) ATGCTGTTCAACCTGCGCATCCTGCTGAACAACGCCGCCTTCCGCAACGGCCACAACTTCATGGTGCGCAACTTCCGCTGCGGCCAGCCCCTGCAGAACAAGGTGCAGCTGAAGGGCCGCGACCTGCTGACCCTGAAGAACTTCACCGGCGAGGAGATCAAGTACATGCTGTGGCTGAGCGCCGACCTGAAGTTCCGCATCAAGCAGAAGGGCGAGTACCTGCCCCTGCTGCAGGGCAAGAGCCTGGGCATGATCTTCGAGAAGCGCAGCACCCGCACCCGCCTGAGCACCGAGACAGGCTTCGCCCTGCTGGGCGGCCACCCCTGCTTCCTGACCACCCAGGACATCCACCTGGGCGTGAACGAGAGCCTGACCGACACCGCCCGCGTGCTGAGCAGCATGGCCGACGCCGTGCTGGCCCGCGTGTACAAGCAGAGCGACCTGGACACCCTGGCCAAGGAGGCCAGCATCCCCATCATCAACGGCCTGAGCGACCTGTACCACCCCATCCAGATCCTGGCCGACTACCTGACCCTGCAGGAGCACTACAGCAGCCTGAAGGGCCTGACCCTGAGCTGGATCGGCGACGGCAACAACATCCTGCACAGCATCATGATGAGCGCCGCCAAGTTCGGCATGCACCTGCAGGCCGCCACCCCCAAGGGCTACGAGCCCGACGCCAGCGTGACCAAGCTGGCCGAGCAGTACGCCAAGGAGAACGGCACCAAGCTGCTGCTGACCAACGACCCCCTGGAGGCCGCCCACGGCGGCAACGTGCTGATCACCGACACCTGGATCAGCATGGGCCAGGAGGAGGAGAAGAAGAAGCGCCTGCAGGCCTTCCAGGGCTACCAGGTGACCATGAAGACCGCCAAGGTGGCCGCCAGCGACTGGACCTTCCTGCACTGCCTGCCCCGCAAGCCCGAGGAGGTGGACGACGAGGTGTTCTACAGCCCCCGCAGCCTGGTGTTCCCCGAGGCCGAGAACCGCAAGTGGACCATCATGGCCGTGATGGTGAGCCTGCTGACCGACTACAGCCCCCAGCTGCAGAAGCCCAAGTTCTGA",dose dependence of survival rate,Spf/ash mice [1],dose-dependent
same,survival during hyperammonemic crisis vs PBS,Spf/ash mice [1],greater survival
same,PK/PD correlation between hOTC protein expression and reduction of urinary orotate,Spf/ash mice [2],high PK/PD correlation
same,urinary orotate levels in treated Spf/ash mice vs WT mice,Spf/ash mice [3],comparable to urinary orotate levels in WT mice
same,duration of sustainable reduction of urinary orotate levels,Spf/ash mice [3]; normalized to creatinine,up to 14 days
